Source: patent US20260070975A1 (SANTA ANA BIO, published 2026)

T1: siglec 10 expressed on HEK293 cells (UniProt Q96LC7 17-697, limits assumed)
T1 construct: whole, on cells; also called Siglec-6 family member
T1 sequence (looked up): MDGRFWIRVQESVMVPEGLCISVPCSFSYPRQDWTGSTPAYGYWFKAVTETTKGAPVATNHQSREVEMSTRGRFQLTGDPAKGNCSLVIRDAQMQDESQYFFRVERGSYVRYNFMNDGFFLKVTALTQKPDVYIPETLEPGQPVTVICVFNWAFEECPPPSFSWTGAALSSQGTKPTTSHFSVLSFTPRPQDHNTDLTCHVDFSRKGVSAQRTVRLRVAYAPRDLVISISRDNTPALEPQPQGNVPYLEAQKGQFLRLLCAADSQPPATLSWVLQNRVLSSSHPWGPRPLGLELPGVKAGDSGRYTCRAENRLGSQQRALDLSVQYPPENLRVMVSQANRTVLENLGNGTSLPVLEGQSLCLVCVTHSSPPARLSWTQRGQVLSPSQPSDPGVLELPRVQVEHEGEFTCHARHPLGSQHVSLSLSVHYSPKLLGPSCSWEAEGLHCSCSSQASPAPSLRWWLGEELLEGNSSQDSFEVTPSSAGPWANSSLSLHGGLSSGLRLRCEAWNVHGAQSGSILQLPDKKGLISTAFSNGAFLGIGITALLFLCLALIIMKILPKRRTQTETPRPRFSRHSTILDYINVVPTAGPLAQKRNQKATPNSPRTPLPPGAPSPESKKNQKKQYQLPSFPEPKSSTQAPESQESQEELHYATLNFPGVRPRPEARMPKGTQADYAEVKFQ

T2: siglec 15 expressed on HEK293 cells (UniProt Q6ZMC9 20-328, limits assumed)
T2 construct: whole, on cells; also called Siglec-6 family member
T2 sequence (looked up): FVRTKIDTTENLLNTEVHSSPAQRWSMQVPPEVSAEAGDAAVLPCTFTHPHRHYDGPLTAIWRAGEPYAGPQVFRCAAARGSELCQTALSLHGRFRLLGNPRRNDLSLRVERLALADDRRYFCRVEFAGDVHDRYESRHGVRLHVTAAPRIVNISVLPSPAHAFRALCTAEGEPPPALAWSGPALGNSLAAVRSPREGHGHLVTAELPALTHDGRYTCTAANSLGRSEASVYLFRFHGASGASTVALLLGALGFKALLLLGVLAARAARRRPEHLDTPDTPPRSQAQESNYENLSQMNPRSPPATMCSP


Assays:
[1] = molecular target: T1, siglec 10 expressed on HEK293 cells; experiment: flow cytometry on HEK293 cells expressing the target
Procedure: (§1) Cultured HEK293 cells expressing human siglec-6, cynomolgus siglec-6, or siglec 6 family members were resuspended in FACS Blocking Buffer (PBS+10% normal human serum) for 30 minutes. Following washing, cells were incubated with siglec-6 antibodies in FACS Buffer (PBS+0.5% bovine serum albumin+0.09% sodium azide) and incubated at 4° C. for 30 minutes, washed and incubated with PE-labeled anti-human secondary antibody. Cells were incubated at 4° C. for 30 minutes in the dark. Following washing, cytofluorimetric analysis was conducted using a BD FACS Symphony A3 (BD Biosciences). Cells were sorted by scatter properties and separated for single cell analysis using side scatter width vs side scatter area. Antibody binding to cells was quantitated by measuring fluorescent emissions of excitation wavelength of 561 nm using a 586/15 nm filter. Data analysis was performed using FlowJo Software.

[2] = molecular target: T2, siglec 15 expressed on HEK293 cells; experiment: as above
Procedure: as §1

| binding result [1] | binding result [2] | Binder |
| --- | --- | --- |
| no binding | no binding | hRND-2 (antibody, human IgG1, kappa, V domains shown, also called humanized RND-2; hRND-H2 / hRND-L3; copies: 2 + 2) VH: QVQLVQSGAEVKKPGASVKVSCKASGYAFTSYWMHWVRQAPGQRLEWMGEIYPTNGGTTYAQKFQGRVTMTVDKSTSTAYMELSRLRSDDTAVYYCTIEDFYAMDYWGQGTTVTVSS VL: DIVMTQTPLSLSVTPGQPASISCKSSQSLLDSDGKTSLNWLLQKPGQSPQRLIYLVSKLDSGVPDRFSGSGSGTDFTLKISRVEAEDVGVYYCWQGTHFPYTFGQGTKLEIKR |
| no binding | no binding | hRND-4 (antibody, human IgG1, kappa, V domains shown, also called humanized RND-4; hRND-H2b / hRND-L3; copies: 2 + 2) VH: QVQLVQSGAEVKKPGASVKVSCKASGYAFTSYWMHWVRQAPGQRLEWMGEIYPTNGGTTYNEKFKRRVTMTVDKSTSTAYMELSRLRSDDTAVYYCTIEDFYAMDYWGQGTTVTVSS VL: DIVMTQTPLSLSVTPGQPASISCKSSQSLLDSDGKTSLNWLLQKPGQSPQRLIYLVSKLDSGVPDRFSGSGSGTDFTLKISRVEAEDVGVYYCWQGTHFPYTFGQGTKLEIKR |
| no binding | no binding | hRND-5 (antibody, human IgG1, kappa, V domains shown, also called humanized RND-5; hRND-H3b / hRND-L3; copies: 2 + 2) VH: QVQLVQSGAEVKKPGASVKLSCKASGYAFTSYWMHWVRQAPGQRLEWIGEIYPTNGGTTYNEKFKRRATLTVDKSTSTAYMELSRLRSDDTAVYYCTIEDFYAMDYWGQGTTVTVSS VL: DIVMTQTPLSLSVTPGQPASISCKSSQSLLDSDGKTSLNWLLQKPGQSPQRLIYLVSKLDSGVPDRFSGSGSGTDFTLKISRVEAEDVGVYYCWQGTHFPYTFGQGTKLEIKR |
| no binding | no binding | hRND-3 (antibody, human IgG1, kappa, V domains shown, also called humanized RND-3; hRND-H3 / hRND-L3; copies: 2 + 2) VH: QVQLVQSGAEVKKPGASVKLSCKASGYAFTSYWMHWVRQAPGQRLEWIGEIYPTNGGTTYAQKFQGRATLTVDKSTSTAYMELSRLRSDDTAVYYCTIEDFYAMDYWGQGTTVTVSS VL: DIVMTQTPLSLSVTPGQPASISCKSSQSLLDSDGKTSLNWLLQKPGQSPQRLIYLVSKLDSGVPDRFSGSGSGTDFTLKISRVEAEDVGVYYCWQGTHFPYTFGQGTKLEIKR |
